The values below come from patent EP4537907A1 (Enthera S.r.l., dated 2025).

In assay [1] the target is T1, irrelevant antigen expressed on HEK 293 cells after transient transfection (human).
T1 construct: Negative control antigen; also called irrelevant human antigen; irrelevant Ag+ cells
Put plainly: flow cytometry on HEK 293 cells transiently transfected with an irrelevant antigen (negative control), secondary anti-human IgG. On the technique in general: A flow cytometer gives signals particle by particle.

Assay [2] deals with T2, recombinant mouse CD248 (internally produced) (mouse, UniProt Q91V98 18-695, limits assumed).
T2 construct: also called murine recombinant CD248; Murine CD248
T2 sequence (looked up): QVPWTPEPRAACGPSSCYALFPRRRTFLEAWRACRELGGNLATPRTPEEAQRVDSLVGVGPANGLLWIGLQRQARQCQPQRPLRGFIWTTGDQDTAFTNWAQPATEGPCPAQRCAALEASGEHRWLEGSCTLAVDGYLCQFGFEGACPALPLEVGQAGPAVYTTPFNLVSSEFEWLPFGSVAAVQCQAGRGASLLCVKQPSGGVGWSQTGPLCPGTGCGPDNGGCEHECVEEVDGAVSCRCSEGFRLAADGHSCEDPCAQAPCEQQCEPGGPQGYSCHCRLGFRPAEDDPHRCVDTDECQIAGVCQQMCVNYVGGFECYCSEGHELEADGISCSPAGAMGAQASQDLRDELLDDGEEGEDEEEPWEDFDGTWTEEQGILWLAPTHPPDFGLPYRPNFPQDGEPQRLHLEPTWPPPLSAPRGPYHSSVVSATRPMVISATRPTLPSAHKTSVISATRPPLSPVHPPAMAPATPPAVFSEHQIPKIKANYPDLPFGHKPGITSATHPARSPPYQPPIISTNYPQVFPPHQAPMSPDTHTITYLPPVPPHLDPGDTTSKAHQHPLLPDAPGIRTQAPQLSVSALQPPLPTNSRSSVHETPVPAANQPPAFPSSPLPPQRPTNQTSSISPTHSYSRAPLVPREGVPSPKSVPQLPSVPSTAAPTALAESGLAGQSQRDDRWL
Put plainly: BLI (Octet platform, BLItz System), mAb captured via Fc on AHC biosensor, soluble antigen at different concentrations. Background: BLI is a label-free optical method that tracks binding on a fibre tip over time.

Assay [3] deals with T3, recombinant human CD248 (internally produced) (human, UniProt Q9HCU0 18-687, limits assumed, biotinylated in the inhibition ELISA).
T3 construct: Soluble recombinant protein; also called human recombinant CD248; biotinylated CD248 (internally produced)
T3 sequence (looked up): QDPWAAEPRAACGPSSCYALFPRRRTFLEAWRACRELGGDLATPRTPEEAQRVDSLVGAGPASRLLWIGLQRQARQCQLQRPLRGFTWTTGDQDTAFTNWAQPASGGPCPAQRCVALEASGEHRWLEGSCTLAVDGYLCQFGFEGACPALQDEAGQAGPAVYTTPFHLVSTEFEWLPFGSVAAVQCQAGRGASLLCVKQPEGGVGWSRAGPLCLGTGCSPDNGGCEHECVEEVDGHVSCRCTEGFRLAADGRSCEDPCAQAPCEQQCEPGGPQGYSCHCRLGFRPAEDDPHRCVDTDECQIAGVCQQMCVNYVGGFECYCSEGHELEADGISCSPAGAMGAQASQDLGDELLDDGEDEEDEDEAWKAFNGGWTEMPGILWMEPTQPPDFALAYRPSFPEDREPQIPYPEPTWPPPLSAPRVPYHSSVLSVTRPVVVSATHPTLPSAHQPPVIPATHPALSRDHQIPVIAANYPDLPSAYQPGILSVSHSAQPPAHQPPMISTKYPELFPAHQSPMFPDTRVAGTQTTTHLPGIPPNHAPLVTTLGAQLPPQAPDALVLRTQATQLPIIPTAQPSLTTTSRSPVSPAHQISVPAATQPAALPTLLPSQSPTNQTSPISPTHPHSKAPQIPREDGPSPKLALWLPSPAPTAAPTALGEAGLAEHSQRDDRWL
Described as above.

Assay [4] addresses T3, recombinant human CD248 (internally …). Briefly: competition ELISA: purified IgG4 (S228P/L235E) with biotinylated human CD248, added to immobilised human IGFBP5, Streptavidin-HRP. In general terms: In an ELISA, binding on a coated surface is turned into a signal by an enzyme label.
In assay [5] the target is T4, mouse CD248 expressed on the cell membrane of transiently transfected HEK 293 cells (mouse, UniProt Q91V98 18-765).
T4 construct: whole, on cells; also called mouse CD248+ cells
T4 sequence (looked up): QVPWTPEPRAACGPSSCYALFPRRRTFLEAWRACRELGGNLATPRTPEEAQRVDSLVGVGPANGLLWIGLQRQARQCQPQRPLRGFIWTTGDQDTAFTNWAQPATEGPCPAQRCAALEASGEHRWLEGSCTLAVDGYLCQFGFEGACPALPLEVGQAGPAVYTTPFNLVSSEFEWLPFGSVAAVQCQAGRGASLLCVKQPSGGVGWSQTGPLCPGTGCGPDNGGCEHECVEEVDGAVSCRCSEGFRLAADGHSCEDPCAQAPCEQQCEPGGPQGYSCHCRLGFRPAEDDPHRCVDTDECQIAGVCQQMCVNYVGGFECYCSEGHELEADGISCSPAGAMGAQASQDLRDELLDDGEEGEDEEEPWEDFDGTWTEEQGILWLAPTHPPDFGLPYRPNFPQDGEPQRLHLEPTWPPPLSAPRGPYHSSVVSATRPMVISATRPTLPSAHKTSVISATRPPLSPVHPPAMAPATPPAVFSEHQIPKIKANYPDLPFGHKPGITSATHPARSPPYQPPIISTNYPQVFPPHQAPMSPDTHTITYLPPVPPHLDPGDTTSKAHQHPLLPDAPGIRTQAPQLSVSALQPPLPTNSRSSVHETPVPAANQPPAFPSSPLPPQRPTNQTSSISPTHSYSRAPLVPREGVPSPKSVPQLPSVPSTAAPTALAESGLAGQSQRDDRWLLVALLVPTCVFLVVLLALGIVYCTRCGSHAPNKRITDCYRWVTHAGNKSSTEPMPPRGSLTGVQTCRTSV
Briefly: flow cytometry on transiently transfected HEK 293 cells, secondary anti-human IgG, antibody concentration series.

Assay [6] concerns the target T5, human CD248 expressed on the cell membrane of transiently transfected HEK 293 cells (human, UniProt Q9HCU0 18-757).
T5 construct: whole, on cells; also called human CD248+ cells; CD248-positive cells
T5 sequence (looked up): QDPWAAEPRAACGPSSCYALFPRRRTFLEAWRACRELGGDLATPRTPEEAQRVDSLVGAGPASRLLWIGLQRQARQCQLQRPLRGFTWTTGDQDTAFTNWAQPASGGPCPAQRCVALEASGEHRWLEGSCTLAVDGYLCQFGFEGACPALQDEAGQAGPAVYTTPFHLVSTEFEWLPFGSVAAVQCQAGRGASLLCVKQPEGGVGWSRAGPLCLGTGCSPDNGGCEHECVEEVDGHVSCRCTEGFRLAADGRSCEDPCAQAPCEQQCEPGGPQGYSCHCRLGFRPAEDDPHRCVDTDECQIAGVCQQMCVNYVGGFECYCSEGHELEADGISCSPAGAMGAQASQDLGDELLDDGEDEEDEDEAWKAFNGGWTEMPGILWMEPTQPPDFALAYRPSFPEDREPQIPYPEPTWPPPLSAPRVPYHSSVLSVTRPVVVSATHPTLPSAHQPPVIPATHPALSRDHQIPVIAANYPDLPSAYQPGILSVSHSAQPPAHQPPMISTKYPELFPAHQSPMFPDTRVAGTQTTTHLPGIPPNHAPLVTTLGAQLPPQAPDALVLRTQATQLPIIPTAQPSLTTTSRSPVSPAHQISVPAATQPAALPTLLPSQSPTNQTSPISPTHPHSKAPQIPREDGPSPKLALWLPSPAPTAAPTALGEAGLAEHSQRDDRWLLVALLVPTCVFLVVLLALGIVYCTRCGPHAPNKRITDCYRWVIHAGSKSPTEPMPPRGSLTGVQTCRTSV
The description is as above.

B1: YU1025-B07 (antibody, V domains shown)
VH: QVQLVQSGGGVVQPGRSLRLSCAASGFTFSSYAMHWVRQAPGKGLEWVAVISYDGSNKYYADSVKGRFTISRDNSKNTLYLQMNSLRAEDTAVYYCARTKARWFGVTTYMDVWGKGTLVTVSS
VL: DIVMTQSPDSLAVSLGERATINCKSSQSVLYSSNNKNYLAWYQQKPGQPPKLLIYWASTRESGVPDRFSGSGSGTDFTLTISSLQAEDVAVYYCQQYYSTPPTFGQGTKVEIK
notes: Tested as full human IgG4 carrying the S228P/L235E mutations
B1: the 50% effective concentration (EC50) in assay [1] came to 1.68 µg/mL; in assay [5], 0.0216 µg/mL; in assay [6], 0.0236 µg/mL. In addition, the Kd in assay [2] turned out to be 14.2 nM; in assay [3], 11.7 nM. The IC50 in assay [4] worked out at 19.2 µg/mL.

B2: YU1023-A02 (antibody, human IgG4, V domains shown)
VH: QVQLVESGPGLVKPSQTLSLTCTVSGGSISSGGYYWSWIRQHPGKGLEWIGYIYYSGSTYYNPSLKSRVTISVDTSKNQFSLKLSSVTAADTAVYYCARVRGRSATYFDYWGQGTTVTVSS
VL: QSVLTQPPSVSGAPGQRVTISCTGSSSNIGAGYDVRWYQQLPGTAPKLLIYANNNRPSGVPDRFSGSKSGTSASLAITGLQTEDEADYYCQSYDISLSGSLFGGGTKLTVL
notes: Tested as full human IgG4 carrying the S228P/L235E mutations; also called YU1023-A02 mAb
Regarding B2, the EC50 in assay [1] was found to be 3.16 µg/mL; in assay [5] it was 0.0388 µg/mL; in assay [6], 0.0523 µg/mL. Moreover, the Kd in assay [2] stood at 10.1 nM; in assay [3] it was 9.94 nM. Besides, in assay [4], the IC50 was found to be 20.8 µg/mL.

B3: YU1023-B03 (antibody, human IgG4, V domains shown)
VH: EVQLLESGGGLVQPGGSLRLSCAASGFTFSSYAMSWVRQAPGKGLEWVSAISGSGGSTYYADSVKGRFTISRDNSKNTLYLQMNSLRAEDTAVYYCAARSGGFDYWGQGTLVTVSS
VL: DVVMTQSPLSLPVTPGEPASISCRSSQSLLHSNGYNYLDWYVQKPGQSPQRLIYFTSNRASGVPDRFSGSGSGTDFTLKISRVEAEDVGVYYCMQSIQLPRTFGQGTKVEIK
notes: as for B1
In the case of B3, the values for the EC50 in assay [1], in assay [5] and in assay [6] were 3.66 µg/mL, 0.0184 µg/mL and 0.0401 µg/mL, respectively. In addition, the figures for the Kd in assay [2] and in assay [3] were 7.99 nM and 18.6 nM, respectively. Besides, the IC50 in assay [4] came out at 47.6 µg/mL.

B4: YU1024-G01 (antibody, human IgG4, V domains shown)
VH: QVQLQESGGGVVQPGRSLRLSCAASGFTFSSYAMHWVRQAPGKGLEWVAVISYDGSNKYYADSVKGRFTISRDNSKNTLYLQMNSLRAEDTAVYYCARNNHPRGERLPQYWGQGTLVTVSS
VL: DIQLTQSPSSLSASVGDRVTITCRASQSVGSYLNWYQHKPGKAPKLLIYVASRLQSGVPSRFSGSGSGTDFTLTINSLQPEDFATYYCQQSYSTPLTFGGGTKVEIK
notes: as for B1
Regarding B4, the EC50 in assay [1] is 2.11 µg/mL; in assay [5], roughly 0.00985 µg/mL; in assay [6], 0.0121 µg/mL. The Kd in assay [2] came to 3.91 nM; in assay [3] it was 3.78 nM. For the same molecule, the half-maximal inhibitory concentration (IC50) in assay [4] came out at 4.7 µg/mL.

B5: YU1023-E03 (antibody, human IgG4, V domains shown)
VH: EVQLLESGGGVVQPGRSLRLSCAASGFTFSSYAMHWVRQAPGKGLEWVAVISYDGSNKYYADSVKGRFTISRDNSKNTLYLQMNSLRAEDTAVYYCARSIAAAGTRWFDPWGQGTLVTVSS
VL: DIQLTQSPSSVSASVGDRVTITCRASQGISSWLAWYQQKPGKAPKLLIYAASSLQSGVPSRFSGSGSGTDFTLTISSLQPEDFATYYCQQANSFPLTFGGGTKLEIK
notes: Tested as full human IgG4 carrying the S228P/L235E mutations; It was scarcely produced (<0.1 mg/ml)
As to B5, the results for the EC50 in assay [1], in assay [5] and in assay [6] were 3.84 µg/mL, 0.891 µg/mL and 1.49 µg/mL, respectively. The half-maximal inhibitory concentration (IC50) in assay [4] came out at 17.4 µg/mL.

As a reminder, the EC50 is the midpoint of the concentration-response curve. In general, Kd refers to the concentration at which binding is half-saturated. For orientation: IC50 means the concentration at which inhibition is half-maximal.
